Results reported in patent US20240010753A1 (EPIMAB BIOTHERAPEUTICS HK, published 2024).
Values belong to the binder of their own block, whether it stands above or below them.

Key:
[1] = target: T1, recombinant human ROR1-ECD protein (human, UniProt Q01973 30-406); assay: competition ELISA: biotinylated ROR1-ECD pre-mixed with the row's antibody; competitor coated on the plate: ROR1-Tab1
T1 construct: also called human ROR1 extracellular domain
Method: (§1) The binding epitope of ROR1 antibodies were identified with a competition ELISA. Briefly, 96 well plates were coated with 1 ug/mL purified antibodies and incubated overnight at 4° C. After washing with PBS containing 0.05% Tween 20, plates were blocked with blocking buffer (PBS containing 0.05% Tween 20 and 2% BSA) at 37° C. for 2 hours. Biotinylated human ROR1-ECD protein pre-mixed with ROR1 antibody (sample) or irrelevant mouse IgG (baseline) was added into plate wells and incubated at 37° C. for 1 hour before being washed 3 times. Streptavidin-HRP (1:5000 dilution) was then added into each well and incubated at 37° C. for 1 hour before being washed another 3 times. Tetramethylbenzidine (TMB) chromogenic solution was added for color development for 5 minutes then the reaction was stopped with 1M HCl. Absorbance at 450 nm (OD₄₅₀) was measured on a microplate reader. The OD450baseline represents the level of human ROR1-ECD binding to ROR1 antibodies at absence of competition, while the difference between OD450baseline and OD450ₛₐₘₚₗₑ reflects the competition between the ROR1 antibody coated on plate and the antibody in solution. The inhibition percentage was calculated by following equation: […]

[2] = target: T1, recombinant human ROR1-ECD protein; assay: competition ELISA: biotinylated ROR1-ECD pre-mixed with the row's antibody; competitor coated on the plate: ROR1-Tab2
Method: as §1

[3] = target: T1, recombinant human ROR1-ECD protein; assay: BLI (Octet RED96), antibody captured on anti-mouse IgG Fc sensors, ROR1-ECD in solution, 25 C, 1:1 fit
Method: Briefly, Anti-Mouse IgG Fc Capture (AMC) Biosensors were used to capture purified anti-ROR1 antibodies. Sensors were then dipped into solutions containing recombinant human ROR1-ECD protein to detect target protein binding to the captured antibodies. Kinetics constants were determined by processing and fitting data to a 1:1 binding model using Fortebio analysis software. Shown below in Table 2 are the results obtained for ROR1-mAb004 in comparison with two previously described anti-ROR1 monoclonal antibodies, ROR1-Tab1 is clone R12 as described in WO2014167022, and ROR1-Tab2 is clone D10 as described in WO2012097313.

[4] = target: T1, recombinant human ROR1-ECD protein; assay: competition ELISA: biotinylated ROR1-ECD pre-mixed with the row's antibody; competitor coated on the plate: ROR1-mAb004
Method: as §1

[5] = target: T2, human ROR1 on cells (human, UniProt Q01973 30-937); assay: flow cytometry on MDA-MB-231 cells, MFI
T2 construct: whole, on cells; the cell line is named under assay; also called CHO-ROR1; CHOK1-ROR1

[6] = target: T3, human CD3 on cells (human, UniProt P07766 23-207; P04234 22-171; P09693 23-182; P20963 22-164); assay: flow cytometry on CHO-CD3-TCR cells, MFI
T3 construct: the cell line is named under assay; also called human TCR/CD3 complex; CHO-CD3-TCR
Method: Briefly, 5×10⁵ cells were seeded into each well of a 96-well plate. Cells were centrifuged at 400 g for 5 minutes and supernatants were discarded. For each well, […] of serially diluted antibodies were then added and mixed with the cells. After 40 minutes of incubation at 4° C., plates were washed several times to remove excess antibodies. Secondary fluorochrome-conjugated goat anti-human IgG antibody was then added and incubated with cells at room temperature for 20 minutes. After another round of centrifugation and a washing step, cells were resuspended in FACS buffer for reading on a CytoFLEX Flow Cytometer (Beckman Coulter). Median Fluorescence Intensity (MFI) readouts were plotted against antibody concentration and analyzed with GraphPad Prism 6.0 software.

[7] = target: T1, recombinant human ROR1-ECD protein; assay: BLI (Octet RED96), FIT-Ig captured on anti-hIgG Fc sensors, ROR1 ECD at 10 ug/ml; off-rate relative to FIT1007-12B
Method: The ROR1/CD3 FIT-Ig proteins were assayed for and ranked by dissociation rate constant (koff, “off-rate”) using an Octet®RED96 biolayer interferometry (Pall FortéBio LLC). Anti-hIgG Fc Capture (AHC) Biosensors (Pall) were first exposed to antibody at a concentration of 100 nM for 30 seconds to capture antibody, then dipped into running buffer (1× pH 7.2 PBS, 0.05% Tween 20, 0.1% BSA) for 60 seconds to check baseline. Sensors with captured antibody were dipped into recombinant human ROR1 ECD protein at 10 ug/ml for 5 minutes to measure association, followed by dipped into running buffer for 1200 seconds to measure dissociation. The association and dissociation curves were fitted to a 1:1 Langmuir binding model using ForteBio Data Analysis software (Pall). The off-rate ratios were calculated by the off-rate of antibody to that of FIT1007-12B. Lower ratio indicates slower dissociation of the antibody in comparison with the parental chimeric antibody FIT1007-12B.

T1 sequence (Q01973 30-406): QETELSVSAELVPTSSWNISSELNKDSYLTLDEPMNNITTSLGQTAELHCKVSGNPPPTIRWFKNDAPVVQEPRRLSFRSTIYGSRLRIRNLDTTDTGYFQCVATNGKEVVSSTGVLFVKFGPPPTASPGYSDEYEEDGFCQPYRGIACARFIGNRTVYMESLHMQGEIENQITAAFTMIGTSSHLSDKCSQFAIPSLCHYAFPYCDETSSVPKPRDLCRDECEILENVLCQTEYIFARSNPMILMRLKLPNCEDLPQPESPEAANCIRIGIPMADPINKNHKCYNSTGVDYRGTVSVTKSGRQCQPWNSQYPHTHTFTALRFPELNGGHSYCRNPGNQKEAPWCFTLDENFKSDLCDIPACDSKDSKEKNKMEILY
T2 sequence (Q01973 30-937): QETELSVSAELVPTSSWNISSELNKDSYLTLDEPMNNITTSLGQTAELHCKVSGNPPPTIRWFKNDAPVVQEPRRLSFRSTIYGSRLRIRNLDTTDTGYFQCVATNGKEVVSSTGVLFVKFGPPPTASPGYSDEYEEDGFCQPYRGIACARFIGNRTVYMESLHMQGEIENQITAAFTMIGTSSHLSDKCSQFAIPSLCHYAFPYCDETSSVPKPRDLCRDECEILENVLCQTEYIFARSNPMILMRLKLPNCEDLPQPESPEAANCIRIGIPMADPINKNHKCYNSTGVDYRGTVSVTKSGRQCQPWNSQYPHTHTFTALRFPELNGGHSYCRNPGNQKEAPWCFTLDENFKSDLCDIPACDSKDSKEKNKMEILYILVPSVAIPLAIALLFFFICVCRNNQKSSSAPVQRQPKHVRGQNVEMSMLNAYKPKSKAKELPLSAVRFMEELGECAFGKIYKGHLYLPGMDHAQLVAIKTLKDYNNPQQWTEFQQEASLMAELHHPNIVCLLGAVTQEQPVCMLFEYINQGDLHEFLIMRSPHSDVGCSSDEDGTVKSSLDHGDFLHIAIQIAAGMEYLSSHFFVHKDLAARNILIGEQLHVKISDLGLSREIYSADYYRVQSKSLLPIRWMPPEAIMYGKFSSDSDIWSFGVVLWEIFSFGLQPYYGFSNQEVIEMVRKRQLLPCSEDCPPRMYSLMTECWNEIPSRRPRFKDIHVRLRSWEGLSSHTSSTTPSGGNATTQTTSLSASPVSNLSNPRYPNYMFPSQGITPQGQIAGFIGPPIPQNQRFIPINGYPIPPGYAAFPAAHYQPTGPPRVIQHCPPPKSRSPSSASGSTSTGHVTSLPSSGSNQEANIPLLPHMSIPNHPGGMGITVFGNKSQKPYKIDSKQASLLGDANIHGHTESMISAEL
T3 sequence (P07766 23-207 limits assumed, chain 1 of 4): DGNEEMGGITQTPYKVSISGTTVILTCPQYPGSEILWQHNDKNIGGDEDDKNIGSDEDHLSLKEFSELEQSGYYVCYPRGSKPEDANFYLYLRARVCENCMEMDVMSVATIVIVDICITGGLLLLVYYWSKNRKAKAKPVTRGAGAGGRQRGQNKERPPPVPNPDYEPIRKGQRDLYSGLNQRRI
T3 sequence (P04234 22-171 limits assumed, chain 2 of 4): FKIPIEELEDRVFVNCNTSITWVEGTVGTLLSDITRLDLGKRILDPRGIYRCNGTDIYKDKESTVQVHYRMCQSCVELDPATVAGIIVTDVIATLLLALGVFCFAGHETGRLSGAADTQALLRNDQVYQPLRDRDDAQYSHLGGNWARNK
T3 sequence (P09693 23-182 limits assumed, chain 3 of 4): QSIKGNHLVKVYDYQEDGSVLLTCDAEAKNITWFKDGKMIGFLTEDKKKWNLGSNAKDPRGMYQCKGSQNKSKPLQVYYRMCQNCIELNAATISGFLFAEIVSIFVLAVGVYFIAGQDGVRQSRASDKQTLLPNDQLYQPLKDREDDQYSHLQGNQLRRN
T3 sequence (P20963 22-164 limits assumed, chain 4 of 4): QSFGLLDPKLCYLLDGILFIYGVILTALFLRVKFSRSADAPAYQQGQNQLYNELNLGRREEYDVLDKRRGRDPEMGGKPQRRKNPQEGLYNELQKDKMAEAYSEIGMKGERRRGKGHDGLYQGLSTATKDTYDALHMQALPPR

Inhibition % [1]: -21% | Inhibition % [2]: 92% | Kd [3]: 98.8 nM | koff [3]: 0.0321 s⁻¹ | kon [3]: 325000 M⁻¹ s⁻¹ | Inhibition % [4]: 56%
B1: ROR1-Tab2 (antibody, V domains shown)
VH: QVQLKESGPGLVAPSQTLSITCTVSGFSLTSYGVHWVRQPPGKGLEWLGVIWAGGFTNYNSALKSRLSISKDNSKSQVLLKMTSLQTDDTAMYYCARRGSSYSMDYWGQGTSVTVSS
VL: EIVLSQSPAITAASLGQKVTITCSASSNVSYIHWYQQRSGTSPRPWIYEISKLASGVPVRFSGSGSGTSYSLTISSMEAEDAAIYYCQQWNYPLITFGSGTKLEIQ
notes: also called clone D10; D10 as described in WO2012097313

EC50 (read off the curve) [6]: ~2 nM
B4: HuEM0006-01-27 (antibody, V domains shown)
VH: EVQLVQSGAEVKKPGASVKVSCKASGFSFTNYYVHWMRQAPGQGLEWIGWISPGSDNTKYNEKFKGRVTLTADTSISTAYMELSRLRSDDTAVYYCARDDYGNYYFDYWGQGTTVTVSS
VL: DIVMTQSPDSLAVSLGERATINCKSSQSLLNARTRKNYLAWYQQKPGQPPKLLIYWASTRESGVPDRFSGSGSGTDFTLTISSLQAEDVAVYYCKQSYILRTFGGGTKVEIK
notes: only the variable domains are tied to it; also called HuEM1006-01-27

Off-rate Ratio [7]: 139%
B10: FIT1007-12B-16 (bispecific antibody, human IgG1, kappa, L234A L235A)
chain 1: not shown
chain 2: QVQLQQSGPELVKPGASVKISCKASGYAFSRSWMNWVKQRPEKGLEWIGRIYPGQGDIKYNANFKGKATLTADKSSSTAYMQLSSLTSEDSAVYFCAHIYYDFYYALDYWGQGTSVTVSSASTKGPSVFPLAPSSKSTSGGTAALGCLVKDYFPEPVTVSWNSGALTSGVHTFPAVLQSSGLYSLSSVVTVPSSSLGTQTYICNVNHKPSNTKVDKKVEPKSC
chain 3: not shown
notes: Chimeric ROR1 arm with CDR-H2 point mutations (QA); ROR1xCD3 FIT-Ig, no linkers

More lines, now with the values behind:

B2: D10 x CD3 FIT-Ig (bispecific antibody, human IgG1, kappa, L234A L235A)
chain 1: not shown
chain 2: QVQLKESGPGLVAPSQTLSITCTVSGFSLTSYGVHWVRQPPGKGLEWLGVIWAGGFTNYNSALKSRLSISKDNSKSQVLLKMTSLQTDDTAMYYCARRGSSYSMDYWGQGTSVTVSSASTKGPSVFPLAPSSKSTSGGTAALGCLVKDYFPEPVTVSWNSGALTSGVHTFPAVLQSSGLYSLSSVVTVPSSSLGTQTYICNVNHKPSNTKVDKKVEPKSC
chain 3: not shown
EC50 (read off the curve) [5]: ~0.5 nM

B3: HuEM0006-01-24 (antibody, V domains shown)
VH: EVQLVQSGAEVKKPGASVKVSCKASGFSFTNYYVHWMRQAPGQGLEWMGWISPGSDNTKYNEKFKGRVTMTRDTSISTAYMELSRLRSDDTAVYYCARDDYGNYYFDYWGQGTTVTVSS
VL: DIVMTQSPDSLAVSLGERATINCKSSQSLLNARTRKNYLAWYQQKPGQPPKLLIYWASTRESGVPDRFSGSGSGTDFTLTISSLQAEDVAVYYCKQSYILRTFGGGTKVEIK
notes: only the variable domains are tied to it; also called HuEM1006-01-24
EC50 (read off the curve) [6]: ~0.3 nM

B5: FIT1007-12B-10 (bispecific antibody, human IgG1, kappa, L234A L235A)
chain 1: not shown
chain 2: EVQLVQSGAEVKKPGSSVKVSCKASGYTFSRSWMNWVRQAPGQGLEWMGRIYPGNGDIKYNGNFKGRVTITADKSTSTAYMELSSLRSEDTAVYYCAHIYYDFYYALDYWGQGTTVTVSSASTKGPSVFPLAPSSKSTSGGTAALGCLVKDYFPEPVTVSWNSGALTSGVHTFPAVLQSSGLYSLSSVVTVPSSSLGTQTYICNVNHKPSNTKVDKKVEPKSC
chain 3: not shown
notes: ROR1xCD3 FIT-Ig, same build as FIT1007-12B-1, no linkers
Off-rate Ratio [7]: 36.7%

B6: FIT1007-12B-11 (bispecific antibody, human IgG1, kappa, L234A L235A)
chain 1: not shown
chain 2: EVQLVQSGAEVKKPGSSVKVSCKASGYTFSRSWMNWVRQAPGQGLEWIGRIYPGNGDIKYNGNFKGRATITADKSTSTAYMELSSLRSEDTAVYYCAHIYYDFYYALDYWGQGTTVTVSSASTKGPSVFPLAPSSKSTSGGTAALGCLVKDYFPEPVTVSWNSGALTSGVHTFPAVLQSSGLYSLSSVVTVPSSSLGTQTYICNVNHKPSNTKVDKKVEPKSC
chain 3: not shown
notes: as for B5
Off-rate Ratio [7]: 28.9%

B7: FIT1007-12B-12 (bispecific antibody, human IgG1, kappa, L234A L235A)
chain 1: not shown
chain 2: EVQLVQSGAEVKKPGSSVKVSCKASGYTFSRSWMNWVKQAPGQGLEWIGRIYPGNGDIKYNGNFKGKATITADKSTSTAYMELSSLRSEDTAVYYCAHIYYDFYYALDYWGQGTTVTVSSASTKGPSVFPLAPSSKSTSGGTAALGCLVKDYFPEPVTVSWNSGALTSGVHTFPAVLQSSGLYSLSSVVTVPSSSLGTQTYICNVNHKPSNTKVDKKVEPKSC
chain 3: not shown
notes: as for B5
Off-rate Ratio [7]: 25.2%

B8: R12 x CD3 FIT-Ig (bispecific antibody, human IgG1, kappa, lambda, L234A L235A)
chain 1: not shown
chain 2: QEQLVESGGRLVTPGGSLTLSCKASGFDFSAYYMSWVRQAPGKGLEWIATIYPSSGKTYYATWVNGRFTISSDNAQNTVDLQMNSLTAADRATYFCARDSYADDGALFNIWGPGTLVTISSASTKGPSVFPLAPSSKSTSGGTAALGCLVKDYFPEPVTVSWNSGALTSGVHTFPAVLQSSGLYSLSSVVTVPSSSLGTQTYICNVNHKPSNTKVDKKVEPKSC
chain 3: not shown
EC50 (read off the curve) [5]: ~0.4 nM

B9: FIT1007-12B-13 (bispecific antibody, human IgG1, kappa, L234A L235A)
chain 1: not shown
chain 2: QVQLQQSGPELVKPGASVKISCKASGYAFSRSWMNWVKQRPEKGLEWIGRIYPGNADIKYNANFKGKATLTADKSSSTAYMQLSSLTSEDSAVYFCAHIYYDFYYALDYWGQGTSVTVSSASTKGPSVFPLAPSSKSTSGGTAALGCLVKDYFPEPVTVSWNSGALTSGVHTFPAVLQSSGLYSLSSVVTVPSSSLGTQTYICNVNHKPSNTKVDKKVEPKSC
chain 3: not shown
notes: Chimeric ROR1 arm with CDR-H2 point mutations (AA); ROR1xCD3 FIT-Ig, no linkers
Off-rate Ratio [7]: 89.1%
